Test results published in patent EP4790069A1 (Kyoto University, dated 2026).

Legend:
mouse CD153 = molecular target: T1, mouse CD153 (mouse, UniProt P32972 1-239); assay: flow cytometry on EL4 cells stably expressing mouse CD153
T1 construct: whole, on cells; also called mCD153
T1 sequence (looked up): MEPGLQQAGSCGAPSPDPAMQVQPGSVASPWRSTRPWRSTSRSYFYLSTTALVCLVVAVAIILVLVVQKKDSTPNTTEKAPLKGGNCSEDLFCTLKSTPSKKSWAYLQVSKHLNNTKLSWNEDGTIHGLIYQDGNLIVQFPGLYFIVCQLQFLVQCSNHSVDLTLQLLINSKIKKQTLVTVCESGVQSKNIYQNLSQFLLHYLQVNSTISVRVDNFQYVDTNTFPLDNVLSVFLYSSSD

human CD153 = molecular target: T2, human CD153 (human, UniProt P32971 1-234); assay: flow cytometry, hybridoma supernatant on 293H cells expressing hCD153
T2 construct: whole, on cells; also called hCD153; CD30L
T2 sequence (looked up): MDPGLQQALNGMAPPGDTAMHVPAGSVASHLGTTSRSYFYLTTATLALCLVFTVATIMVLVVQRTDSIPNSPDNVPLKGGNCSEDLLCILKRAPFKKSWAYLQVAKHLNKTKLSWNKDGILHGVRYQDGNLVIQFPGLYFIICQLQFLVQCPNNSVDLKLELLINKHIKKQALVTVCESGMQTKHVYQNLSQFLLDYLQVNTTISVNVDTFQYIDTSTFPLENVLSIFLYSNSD

B1: anti-human CD153 monoclonal antibody 2H7-9 (antibody, V domains shown)
VH: RVQLQQSGAELVRPGTSVKISCKASGYAFTNYWLGWVKQRPGHGLEWIGDIYPGNYNSYSNEKFKGKATLTADESSSTAYMQLSSLTSEDSAVYFCARIYGNYWIFDVWGAGTTVTVSS
VL: QIVLTQSPAIMSASPGEKVTMTCSASSSVNYMHWFQQKPGTSPKLWIYSTSDLASGVPARFSGSGSGTSYSLTISRMEAEDAATYYCQQRSSYPLTFGAGTKLELK
notes: Mouse hybridoma antibody (CD153-KO B6 mouse), purified with Protein A and detected with anti-mouse IgG
binding result (mouse CD153): no binding (tested: 160 µg/ml to 0.00977 µg/ml)
binding result (human CD153): binds
